Residue numbers refer to the chain shown, from its start.
What was measured:
SvS-A2 [1] = molecular target: T1, SvS-A2 (synthetic construct, UniProt Z9I7L2B0V8, A89H/W156Y); experiment: Malachite Green assay; GC-FID competition experiment; assay type: biochemical; settings: 60 µM each FPP and GGPP, ca. 400 nM enzyme, 30 °C, 3 h; library variants carry Ala89His
T1 construct: homodimer; first resolved N-terminal residue Asp09
T1 sequence (Z9I7L2B0V8 1-361 A89H/W156Y): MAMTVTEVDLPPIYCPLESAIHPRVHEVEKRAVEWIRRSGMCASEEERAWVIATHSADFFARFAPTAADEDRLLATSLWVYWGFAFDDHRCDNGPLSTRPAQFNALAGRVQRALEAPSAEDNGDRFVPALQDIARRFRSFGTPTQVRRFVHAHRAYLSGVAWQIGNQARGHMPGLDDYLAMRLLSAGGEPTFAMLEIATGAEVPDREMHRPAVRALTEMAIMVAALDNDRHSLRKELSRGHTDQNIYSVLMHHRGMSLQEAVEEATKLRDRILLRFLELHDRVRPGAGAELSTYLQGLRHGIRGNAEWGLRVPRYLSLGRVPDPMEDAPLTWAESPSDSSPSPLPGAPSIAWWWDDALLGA

SvS-WT = molecular target: T2, SvS-WT (Streptomyces violens, UniProt P0DPK6); experiment: in vitro product formation, GC; assay type: biochemical; settings: 2 µM enzyme, 3 h
T2 construct: extant wild-type enzyme, expressed in E. coli BL21(DE3), purified and desalted; dimeric in solution
T2 sequence (P0DPK6 1-359): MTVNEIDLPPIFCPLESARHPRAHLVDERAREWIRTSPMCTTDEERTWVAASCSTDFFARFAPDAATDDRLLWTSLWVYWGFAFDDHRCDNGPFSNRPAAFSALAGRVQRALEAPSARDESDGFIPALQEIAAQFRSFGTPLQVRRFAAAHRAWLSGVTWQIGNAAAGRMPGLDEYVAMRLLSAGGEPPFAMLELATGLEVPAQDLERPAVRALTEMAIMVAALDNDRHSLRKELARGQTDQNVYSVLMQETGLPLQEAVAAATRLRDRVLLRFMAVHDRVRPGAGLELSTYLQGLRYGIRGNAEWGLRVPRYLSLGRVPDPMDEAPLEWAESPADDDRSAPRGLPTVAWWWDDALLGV

SvS-A2 [2] = molecular target: T3, SvS-A2 (synthetic construct, UniProt Z9I7L2B0V8, A89H/A224I); experiment: Malachite Green assay; GC-FID competition experiment; assay type: biochemical; settings: 60 µM each FPP and GGPP, ca. 400 nM enzyme, 30 °C, 3 h; library variants carry Ala89His
T3 construct: homodimer; first resolved N-terminal residue Asp09
T3 sequence (Z9I7L2B0V8 1-361 A89H/A224I): T1 sequence (Z9I7L2B0V8 1-361 A89H/W156Y) with Y156W, A224I

[3] = molecular target: spiroviolene synthase (SvS) from Streptomyces violens, extant enzyme (Streptomyces violens); experiment: SEC; size exclusion chromatography of the enzyme in solution; conditions in the Supporting Methods (not shown)
[4] = substrate: CC(C)=CCC/C(C)=C/CC/C(C)=C/CC/C(C)=C/COP(=O)(O)OP(=O)(O)O; experiment: initial rates of spiroviolene formation, cooperative fit; assay type: biochemical, synthetic construct; settings: 0.5 µM enzyme, Hill coefficient fit
From the text: initial rates of spiroviolene formation, cooperative fit on SvS-A2 | The KM value for GGPP reported herein is twice as high as previously reported

[5] = substrate: CC(C)=CCC/C(C)=C/CC/C(C)=C/CO[P@@](=O)(O)OP(=O)(O)O; experiment: initial rates of hedycaryol formation, Michaelis-Menten fit; assay type: biochemical, synthetic construct; settings: 0.5 µM enzyme

Molecule: CC(C)=CCC/C(C)=C/CC/C(C)=C/CC/C(C)=C/COP(=O)(O)OP(=O)(O)O [GGPP]
- Malachite Green assay; GC-FID competition experiment (SvS-A2 [1]): A Trp156Tyr exchange (Group III) results in a highly active and diterpene specific SvS-A2 variant
- in vitro product formation, GC (SvS-WT; 60 µM GGPP, 30 °C): both enzymes accepted FPP and GGPP as substrates

Molecule: CC(C)=CCC/C(C)=C/CC/C(C)=C/COP(=O)(O)OP(=O)(O)O [FPP]
- in vitro product formation, GC (SvS-WT; 60 µM FPP, 50 mM Tris-HCl pH 7.4, 30 °C): the extant enzyme in fact showed higher activity with FPP than GGPP
- Malachite Green assay; GC-FID competition experiment (SvS-A2 [2]): Ala224Ile (group IV) reverses substrate preference of the reconstructed ancestral enzyme

Molecule: spiroviolene synthase (SvS) from Streptomyces violens, extant enzyme
- stoichiometry N [3]: 2

B1: SvS-A2 (synthetic construct) (protein)
chain: T1 sequence (Z9I7L2B0V8 1-361 A89H/W156Y) with H89A, Y156W
notes: homodimer; first resolved N-terminal residue Asp09
- Km [4]: 49 ± 6 µM
- kcat [4]: 5.8 ± 0.6 × 10^-3 s^-1
- Km [5]: 28 ± 11 µM
- kcat [5]: 0.3 ± 0.04 × 10^-3 s^-1

Source: PMC8023661, “Engineering of Ancestors as a Tool to Elucidate Structure, Mechanism, and Specificity of Extant Terpene Cyclase” (Journal of the American Chemical Society, 2021)
